Source: FireProtDB (doi:10.1016/s0167-4838(98)00243-x)

Settings: Streptomyces sp. (strain N174), pH 7, Thermal, sodium phosphate 50 mM, whole UniProt chain shown
[1] = CD, transition: 3, reversible: yes(85%)
[2] = Fluorescence, reversible: yes(75%)

B1: Chitosanase wild type, P33665 (protein)
chain: MHSQHRTARIALAVVLTAIPASLATAGVGYASTQASTAVKAGAGLDDPHKKEIAMELVSSAENSSLDWKAQYKYIEDIGDGRGYTGGIIGFCSGTGDMLELVQHYTDLEPGNILAKYLPALKKVNGSASHSGLGTPFTKDWATAAKDTVFQQAQNDERDRVYFDPAVSQAKADGLRALGQFAYYDAIVMHGPGNDPTSFGGIRKTAMKKARTPAQGGDETTYLNAFLDARKAAMLTEAAHDDTSRVDTEQRVFLKAGNLDLNPPLKWKTYGDPYVINS
Tm [1]: 42.7 °C | unfolding enthalpy (van 't Hoff) [1]: 120 kcal/mol | Tm [2]: 43.2 °C | unfolding enthalpy (van 't Hoff) [2]: 161 kcal/mol
